Results from the supplement of paper PMC9112550, “Optimization of the antimicrobial peptide Bac7 by deep mutational scanning” (BMC Biology, 2022).

test system: Escherichia coli TOP10; assay: shrunken log2 fold change of peptide-encoding DNA abundance (4.5 h post-induction vs induction); higher = less antimicrobial activity (less host growth inhibition); conditions: time post-induction: 4.5 h; library: site-saturation at positions 5, 18, 19, 20
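Note: peptides expressed intracellularly from a pBAD plasmid library in pooled LB shake-flask culture, induced with 0.3% L-arabinose, DNA abundance read by NGS, three biological replicates, DESeq2 with apeglm shrinkage.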

Sequence	shrunken log2 fold change
RRIRARPPRLPRPRPRPAINPRP	-0.00878
RRIRWRPPRLPRPRPRPHKTPRP	0.175
RRIRKRPPRLPRPRPRPNRSPRP	-0.0169
RRIRPRPPRLPRPRPRPVAAPRP	0.406
RRIRDRPPRLPRPRPRPWNGPRP	-0.176
RRIRPRPPRLPRPRPRPWVLPRP	-0.0962
RRIRFRPPRLPRPRPRPNKTPRP	-0.172
RRIRHRPPRLPRPRPRPIFFPRP	0.0211
RRIRDRPPRLPRPRPRPTNNPRP	0.0553
RRIRWRPPRLPRPRPRPLHMPRP	-0.0711
RRIRARPPRLPRPRPRPKYHPRP	-0.103
RRIRERPPRLPRPRPRPNIAPRP	0.0918
RRIRERPPRLPRPRPRPGERPRP	0.104
RRIRFRPPRLPRPRPRPEWPPRP	0.459
RRIRQRPPRLPRPRPRPPDNPRP	0.00496
RRIRIRPPRLPRPRPRPGHKPRP	-0.363
RRIRVRPPRLPRPRPRPLKRPRP	0.0621
RRIRWRPPRLPRPRPRPGAAPRP	1.06
RRIRSRPPRLPRPRPRPEQTPRP	0.709
RRIRVRPPRLPRPRPRPVCCPRP	0.0608
RRIRERPPRLPRPRPRPANEPRP	-0.916
RRIRERPPRLPRPRPRPNNVPRP	-0.28
RRIRWRPPRLPRPRPRPEGVPRP	0.601

Sequence	shrunken log2 fold change
RRIRKRPPRLPRPRPRPDEGPRP	-0.01
RRIRLRPPRLPRPRPRPVARPRP	0.551
RRIRGRPPRLPRPRPRPKSRPRP	0.0451
RRIRTRPPRLPRPRPRPWWSPRP	-0.143
RRIRSRPPRLPRPRPRPGKVPRP	-0.0472
RRIRERPPRLPRPRPRPLNCPRP	-1.25
RRIRPRPPRLPRPRPRPMLEPRP	0.0664
RRIRSRPPRLPRPRPRPQCHPRP	-0.113
RRIRIRPPRLPRPRPRPDGFPRP	-0.00369
RRIRNRPPRLPRPRPRPVNHPRP	-0.163
RRIRERPPRLPRPRPRPPAHPRP	0.269
RRIRCRPPRLPRPRPRPRGLPRP	0.331
RRIRARPPRLPRPRPRPASAPRP	0.52
RRIRPRPPRLPRPRPRPFYQPRP	-0.142
RRIRARPPRLPRPRPRPEQVPRP	0.453
RRIRLRPPRLPRPRPRPEGYPRP	0.104
RRIRCRPPRLPRPRPRPMQRPRP	0.0282
RRIRARPPRLPRPRPRPLYQPRP	0.141
RRIRRRPPRLPRPRPRPWVHPRP	0.000557
RRIRNRPPRLPRPRPRPANMPRP	-0.205
RRIRGRPPRLPRPRPRPYLVPRP	0.15
RRIRERPPRLPRPRPRPSAHPRP	0.131
RRIRLRPPRLPRPRPRPANEPRP	0.0458

Sequence	shrunken log2 fold change
RRIRVRPPRLPRPRPRPMREPRP	0.689
RRIRNRPPRLPRPRPRPPPAPRP	1.09
RRIRRRPPRLPRPRPRPDPYPRP	0.175
RRIRKRPPRLPRPRPRPQSMPRP	-0.00568
RRIRCRPPRLPRPRPRPCFHPRP	-0.597
RRIRNRPPRLPRPRPRPFMSPRP	-0.17
RRIRNRPPRLPRPRPRPTMWPRP	-0.0923
RRIRHRPPRLPRPRPRPDTTPRP	-0.226
RRIRTRPPRLPRPRPRPNKIPRP	-0.799
RRIRGRPPRLPRPRPRPNKPPRP	-0.035
RRIRIRPPRLPRPRPRPQCEPRP	-0.0436
RRIRHRPPRLPRPRPRPGCMPRP	-0.0922
RRIRFRPPRLPRPRPRPVCGPRP	0.277
RRIRSRPPRLPRPRPRPMDHPRP	-0.187
RRIRNRPPRLPRPRPRPVWTPRP	-0.118
RRIRVRPPRLPRPRPRPPKVPRP	0.392
RRIRLRPPRLPRPRPRPRMGPRP	0.135
RRIRKRPPRLPRPRPRPLAIPRP	0.0828
RRIRLRPPRLPRPRPRPHMCPRP	-0.165
RRIRNRPPRLPRPRPRPTKWPRP	-0.2
RRIRSRPPRLPRPRPRPMYCPRP	0.0069
RRIRTRPPRLPRPRPRPYRPPRP	-0.2
RRIRHRPPRLPRPRPRPKSGPRP	-0.242

Sequence	shrunken log2 fold change
RRIRGRPPRLPRPRPRPFQIPRP	-0.0147
RRIRVRPPRLPRPRPRPNRDPRP	-0.0911
RRIRRRPPRLPRPRPRPTHAPRP	1.13
RRIRLRPPRLPRPRPRPFYCPRP	-0.472
RRIRPRPPRLPRPRPRPQALPRP	0.339
RRIRGRPPRLPRPRPRPMVGPRP	0.108
RRIRQRPPRLPRPRPRPTINPRP	-0.362
RRIRLRPPRLPRPRPRPVEQPRP	-0.0062
RRIRARPPRLPRPRPRPKCEPRP	0.367
RRIRVRPPRLPRPRPRPNCVPRP	-0.0661
RRIRARPPRLPRPRPRPANCPRP	0.186
RRIRCRPPRLPRPRPRPYCSPRP	-0.502
RRIRFRPPRLPRPRPRPIGNPRP	-0.501
RRIRPRPPRLPRPRPRPCLGPRP	-0.198
RRIRPRPPRLPRPRPRPNIAPRP	0.225
RRIRLRPPRLPRPRPRPVNAPRP	0.0227
RRIRERPPRLPRPRPRPNELPRP	-0.0227
RRIRQRPPRLPRPRPRPRAQPRP	-0.0701
RRIRQRPPRLPRPRPRPFPVPRP	0.0568
RRIRSRPPRLPRPRPRPTRFPRP	0.2
RRIRTRPPRLPRPRPRPERDPRP	0.0175
RRIRQRPPRLPRPRPRPVSGPRP	0.179
